# System: fibrin (formed in the agarose plate from fibrinogen and thrombin)
substance,measurement,value
"recombinant Desmodus rotundus salivary plasminogen activator alpha2 (DSPAα2) from transgenic T1 tobacco seeds, with C-terminal 6xHis tag and KDEL",fibrin degradation,"recombinant proteins t-PA, DSPAα1 and DSPAα2 produced in this manner can degrade fibrin"

# From patent US20160208274
